# Numbering of substitutions follows the chain as printed.
# T1: FcγRIIa R131 on Jurkat/NFAT-luc2p/FcγRIIa R131 cells (UniProt P12318 34-317, limits assumed)
# T1 sequence (looked up): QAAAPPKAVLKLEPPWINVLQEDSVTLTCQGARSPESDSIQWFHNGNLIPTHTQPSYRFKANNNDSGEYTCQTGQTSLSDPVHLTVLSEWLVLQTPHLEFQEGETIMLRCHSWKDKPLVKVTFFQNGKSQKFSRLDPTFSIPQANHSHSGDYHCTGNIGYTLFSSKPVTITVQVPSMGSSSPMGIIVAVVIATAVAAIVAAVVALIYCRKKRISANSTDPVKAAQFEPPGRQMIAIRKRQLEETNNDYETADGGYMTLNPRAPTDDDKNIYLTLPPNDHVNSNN
# T2: hFcγRIIa (H131) (recombinant, C-terminal 6xHis tag) (human, UniProt P12318 34-217)
# T2 construct: also called hFcyR2a H131
# T2 sequence: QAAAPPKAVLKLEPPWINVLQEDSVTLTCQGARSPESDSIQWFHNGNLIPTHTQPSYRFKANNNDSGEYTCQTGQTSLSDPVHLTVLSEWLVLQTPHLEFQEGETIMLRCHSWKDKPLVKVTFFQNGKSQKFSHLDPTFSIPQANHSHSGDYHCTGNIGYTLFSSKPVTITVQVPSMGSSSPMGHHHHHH
# T3: hFcγRIIb (recombinant, C-terminal 6xHis tag) (human, UniProt P31994 43-217)
# T3 construct: also called hFcyR2b
# T3 sequence: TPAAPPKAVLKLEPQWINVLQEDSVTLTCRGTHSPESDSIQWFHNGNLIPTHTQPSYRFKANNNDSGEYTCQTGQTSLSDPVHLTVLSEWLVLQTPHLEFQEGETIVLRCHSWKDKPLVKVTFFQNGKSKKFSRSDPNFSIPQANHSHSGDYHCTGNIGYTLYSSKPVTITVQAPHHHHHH
# T4: hFcγRIIa (R131) (recombinant, C-terminal 6xHis tag) (human, UniProt P12318 34-217)
# T4 construct: also called hFcyR2a R131
# T4 sequence: T2 sequence with H134R
# B1: afuco-A14 GA LS (antibody, human IgG1, lambda)
# heavy: QVQLQQSGPGLVKPSQTLSLTCAISGDSVSSNSAAWNWIRQSPSRGLEWLGRTYYRSKWYNDYAVSVKSRITINPDTSKNQFSLQLNSVTPEDTAVYYCARGTRWGMDVWGQGTLVTVSSASTKGPSVFPLAPSSKSTSGGTAALGCLVKDYFPEPVTVSWNSGALTSGVHTFPAVLQSSGLYSLSSVVTVPSSSLGTQTYICNVNHKPSNTKVDKKVEPKSCDKTHTCPPCPAPELLAGPSVFLFPPKPKDTLMISRTPEVTCVVVDVSHEDPEVKFNWYVDGVEVHNAKTKPREEQYNSTYRVVSVLTVLHQDWLNGKEYKCKVSNKALPAPIEKTISKAKGQPREPQVYTLPPSRDELTKNQVSLTCLVKGFYPSDIAVEWESNGQPENNYKTTPPVLDSDGSFFLYSKLTVDKSRWQQGNVFSCSVLHEALHSHYTQKSLSLSPGK
# light: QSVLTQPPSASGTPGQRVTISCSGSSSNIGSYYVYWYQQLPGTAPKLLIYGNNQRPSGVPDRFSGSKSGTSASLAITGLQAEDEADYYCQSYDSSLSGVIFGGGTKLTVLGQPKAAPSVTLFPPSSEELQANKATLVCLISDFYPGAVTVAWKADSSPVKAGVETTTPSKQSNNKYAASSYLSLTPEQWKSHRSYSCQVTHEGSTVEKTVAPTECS
# Tests used:
# [1] = target: Pre-S1 domain of hepatitis B virus (L protein) on recombinant HBV D genotype virus (hepatitis B virus, D genotype); test: cell-based or functional assay
# [2] = target: T1, FcγRIIa R131 on …; test: cell-based or functional assay
# [3] = target: FcγRIIIa F158 on Jurkat/NFAT-luc2p/FcγRIIIa F158 cells (UniProt P08637 17-254, limits assumed); test: cell-based or functional assay
# [4] = target: T5, hFcγRIIIa (V158) (recombinant, C-terminal 6xHis tag) (human, UniProt P08637 17-208); test: Biacore SPR, ratio against A14 WT
# T5 construct: also called hFcyR3a V158
# [5] = target: T2, hFcγRIIa (H131) (recombinant, …); test: Biacore SPR, ratio against A14 WT
# [6] = target: T6, hFcγRIa (recombinant, C-terminal 6xHis tag) (human, UniProt P12314 16-292); test: Biacore SPR, ratio against A14 WT
# T6 construct: also called hFcγR1a
# [7] = target: T7, hFcγRIIIa (F158) (recombinant, C-terminal 6xHis tag) (human, UniProt P08637 17-208); test: Biacore SPR, ratio against A14 WT
# T7 construct: also called hFcyR3a F158
# [8] = target: T3, hFcγRIIb (recombinant, C-terminal 6xHis …); test: Biacore SPR, ratio against A14 WT
# [9] = target: T4, hFcγRIIa (R131) (recombinant, …); test: Biacore SPR, ratio against A14 WT
# [10] = target: T5, hFcγRIIIa (V158) (recombinant, …); test: Biacore SPR, antibody captured on Protein G CM5 chip, hFcγR as mobile phase, pH 7.0, 1:1 Langmuir fit
# [11] = target: T2, hFcγRIIa (H131) (recombinant, …); test: as above
# [12] = target: T6, hFcγRIa (recombinant, C-terminal 6xHis …); test: as above
# [13] = target: T7, hFcγRIIIa (F158) (recombinant, …); test: as above
# [14] = target: T3, hFcγRIIb (recombinant, C-terminal 6xHis …); test: as above
# [15] = target: T4, hFcγRIIa (R131) (recombinant, …); test: as above
# T5 sequence (P08637 other isoform, or with tags, fused parts or gaps): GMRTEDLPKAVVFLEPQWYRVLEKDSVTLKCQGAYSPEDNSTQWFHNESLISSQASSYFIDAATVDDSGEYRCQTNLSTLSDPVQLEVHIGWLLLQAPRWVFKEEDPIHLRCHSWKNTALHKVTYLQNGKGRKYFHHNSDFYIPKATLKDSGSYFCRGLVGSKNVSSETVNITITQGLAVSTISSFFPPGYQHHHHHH
# T6 sequence (P12314 other isoform, or with tags, fused parts or gaps): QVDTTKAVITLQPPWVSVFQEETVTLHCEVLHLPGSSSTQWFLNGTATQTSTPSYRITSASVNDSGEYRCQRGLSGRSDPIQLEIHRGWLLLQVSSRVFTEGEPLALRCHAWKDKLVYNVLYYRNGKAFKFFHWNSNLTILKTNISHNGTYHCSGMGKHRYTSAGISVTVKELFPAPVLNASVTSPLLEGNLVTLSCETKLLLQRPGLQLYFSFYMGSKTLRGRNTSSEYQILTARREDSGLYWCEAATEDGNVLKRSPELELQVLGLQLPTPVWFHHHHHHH
# T7 sequence (P08637 other isoform, or with tags, fused parts or gaps): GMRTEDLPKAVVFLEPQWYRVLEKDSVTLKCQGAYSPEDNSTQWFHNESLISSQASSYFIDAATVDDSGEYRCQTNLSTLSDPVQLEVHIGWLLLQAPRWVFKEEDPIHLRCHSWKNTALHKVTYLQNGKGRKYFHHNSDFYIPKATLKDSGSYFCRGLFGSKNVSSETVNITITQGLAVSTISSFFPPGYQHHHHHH
binder,measurement,setting,value
B1,IC50 of inhibition of HBV infection of HepG2-hNTCP cells (HBeAg secretion),[1],~0.011 µg/mL
same,"ADCP activity, fold enhancement compared to A14",[2],4.7 fold
same,"ADCC activity, fold enhancement compared to A14",[3],18.6 fold
same,Fold (KD of A14 WT over KD of afuco-A14 GA LS),[4],7.89 fold
same,Fold (KD of A14 WT over KD of afuco-A14 GA LS),[5],4.63 fold
same,Fold (KD of A14 WT over KD of afuco-A14 GA LS),[6],0.41 fold
same,Fold (KD of A14 WT over KD of afuco-A14 GA LS),[7],11 fold
same,Fold (KD of A14 WT over KD of afuco-A14 GA LS),[8],0.76 fold
same,Fold (KD of A14 WT over KD of afuco-A14 GA LS),[9],3.83 fold
same,Kd,[10],123 nM
same,Kd,[11],169 nM
same,Kd,[12],173 nM
same,Kd,[13],588 nM
same,Kd,[14],7470 nM
same,Kd,[15],204 nM
